Assay [1] has as its target glycoside hydrolase family 17 β-1,3-glucanase of Vibrio vulnificus (VvGH17), wild type (Vibrio vulnificus). The assay is described as follows: native gel or EMSA; blue native PAGE, 5–10% gradient gel, 4 °C, 150 V for 3.5 h; 50 mM tricine, 15 mM bis-Tris/HCl, pH 7; cathode buffer with 0.02% Coomassie blue G250; monomer to trimer.
Assay [2] deals with VvGH17 C-terminal-truncated mutant ΔC466 (Vibrio vulnificus). Described as above.

What is called stoichiometry N is the number of molecules, sites or subunits per partner or assembly.

For the substance “glycoside hydrolase family 17 β-1,3-glucanase of Vibrio vulnificus (VvGH17), wild type (enzyme)”, the stoichiometry N in assay [1] amounted to 3.

With “VvGH17 C-terminal-truncated mutant ΔC466 (domain or fragment)”, in assay [2], the stoichiometry N came to 3.
